Assay [1] has as its target Pelota (UniProt Q9BRX2). Kind of assay: pull-down; 800 μl RRL incubated with 200 μl of Pelota resin (Pelota immobilized via CnBr); unconjugated quenched CnBr resin as control; depleted lysate blotted for Hbs1.
In assay [2] the target is 60S-nascent chain-tRNA complex (β-VHP) (not stated | rabbit (endogenous in reticulocyte lysate)) (UniProt P60468).
The target of assay [3] is β-VHP ribosome-nascent chain complexes (RNCs) (not stated | rabbit (endogenous in reticulocyte lysate)) (UniProt P60468).

Sequence of UniProt Q9BRX2 (Q9BRX2 whole entry): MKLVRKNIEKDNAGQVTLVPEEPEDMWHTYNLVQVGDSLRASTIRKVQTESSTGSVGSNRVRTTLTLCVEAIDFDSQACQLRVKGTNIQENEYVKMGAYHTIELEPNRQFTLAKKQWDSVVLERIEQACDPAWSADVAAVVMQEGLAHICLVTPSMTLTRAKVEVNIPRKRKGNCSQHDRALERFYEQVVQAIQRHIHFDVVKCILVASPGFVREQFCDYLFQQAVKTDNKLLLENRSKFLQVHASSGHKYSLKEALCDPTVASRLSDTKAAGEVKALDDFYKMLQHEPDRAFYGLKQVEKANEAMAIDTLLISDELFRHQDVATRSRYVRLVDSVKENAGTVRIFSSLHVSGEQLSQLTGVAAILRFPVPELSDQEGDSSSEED

For Hbs1 (enzyme), the percent of Hbs1 depleted from the lysate by the Pelota resin in assay [1] fell in the range of 80 to 90%.

In assay [2], Listerin (enzyme) yielded a nascent chain ubiquitination of sucrose gradient fractions incubated with E1, E2, ubiquitin and ATP; 60S-nascent chain complexes against 80S RNCs of 10 fold. In assay [3], this substance showed an inhibition of β-VHP nascent chain ubiquitination by the GTPase mutant Hbs1 H348A (Hbs1-DN) added to the translation reaction of 90% and an inhibition of β-VHP nascent chain ubiquitination by the GTPase mutant Hbs1 V269G added to the translation reaction of 60%.
